This data set deals with MS2 coat protein. Briefly: apparent KD of MS2 coat protein; designed switch direction (-1 OFF switch, 1 ON switch): -1; higher = weaker reporter binding. The procedure, abridged: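 Designed RNA switches with common flanks were made on Illumina chips by stalled E. coli RNA polymerase. Titration with SNAP-549-labelled MS2 coat protein doubled from 0.7 or 1.5 nM up to 3 µM. Apparent KD is each design's median over clusters after curve-fitting normalised fluorescence.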

[1] abbreviates: input ligand: microRNA oligo, concentration not stated.
[2] abbreviates: Eterna round: R95, input ligand: microRNA oligo, concentration not stated.
Setting [3] is: Eterna round: R95, input ligand: FMN 200 uM.
Where [4] appears, read: Eterna round: R95, input ligand: none.

In the case of “AAAAGAACAUGAGGAUCACCCAUGUGAACCUUCGUUCGACCUCAGGAUAUCCGCCACCGUCCGCAGGAGAAGGGAGGUAAAAUA [Quraa] (Eterna round: R96, puzzle: Exclusion NG 3)”, the “apparent KD of MS2 coat protein” value (input ligand: FMN 200 uM) amounted to 0.169 µM, the “apparent KD of MS2 coat protein” value under setting [1] came to 0.0456 µM and the “apparent KD of MS2 coat protein” value (input ligand: none) turned out to be 0.0588 µM.

On to “UAUAAUACAUAGGAUAUCGAAUAAAUCAUUUAACGAGAAGGAUGAACAUGAGGAUCACCCAUGUGGUAUCAUGG [Mat - Exclusion 6 - JL Mod - D12] (puzzle: Exclusion 6)”, for which, under setting [2], the “apparent KD of MS2 coat protein” value came to 0.179 µM.

“CAUGAUUGGGAAGGAUAUUGACCUAGUUAGCGCCGAGAAGGUCCCUGUCACAUGAGGAUCACCCAUGUGAGUCUGGUGUUCGAG [Ex NG1 #95] (Eterna round: R96, puzzle: Exclusion NG 1)”: the “apparent KD of MS2 coat protein” value by setting is: (input ligand: FMN 200 uM) 0.0297 µM; under setting [1], 0.0177 µM; (input ligand: none) 0.0216 µM.

With “GCGCAGUCAGGAUAUGCCGCUUGCGAUCACCGUUGGCAAAGGCAGAAGGGACAUGAGGAUCACCCAUGUGGCGC [e4e Mirror Pins #3] (puzzle: Exclusion 4)”, the “apparent KD of MS2 coat protein” value under setting [2] turned out to be 0.0181 µM.

On to “CAGCUGAAUGUCAGGAUAUCUAGAGCGAUAGCUCUAGAGAAGGGACAUGAGGAUCACCCAUGUCACUCCAGCUG [BmEx4/3-B4] (Eterna round: R97, puzzle: Brourd's mod of Exclusion 4)”, for which the “apparent KD of MS2 coat protein” value was 0.0295 µM (input ligand: FMN 200 uM) and 0.0182 µM (input ligand: none).

In the case of “GUGUACUGAGGAUAUACAUGAGGAUCACCCAUGUGAAUAAGAUAGAAUAAGAUAAAGUGUAGAAGGCAGAGUGU [Excluse me!!! 2 - Jieux - Exclusion 3] (puzzle: Exclusion 3)”, the “apparent KD of MS2 coat protein” value under setting [2] is 0.0369 µM.

In the case of “CUUCACCCACCAAAGCUCACCCACAUACCUGCUCUGGUGACAUGAGGAUCACCCAUGUUUUUUGCCCGUCUUAUCUU [Leso] (puzzle: Sensor v3, turn-off variant 2)”, the “apparent KD of MS2 coat protein” value under setting [3] was found to be 0.0407 µM, the “apparent KD of MS2 coat protein” value under setting [2] came to 0.163 µM and the “apparent KD of MS2 coat protein” value under setting [4] was 0.0414 µM.

For the sequence “AAACCUUGUGUCAGGAUAUGCAGAGGGAACGCCAGGCAGAAGGGACAUGAGGAUCACCCAUGUACAUUUUAAAC [BmEX4 B.19] (Eterna round: R97, puzzle: Brourd's mod of Exclusion 4)”, the “apparent KD of MS2 coat protein” value by setting is: (input ligand: FMN 200 uM) 0.487 µM; (input ligand: none) 0.0392 µM.

With “AUCUAGUCAGGAUAUACGAACCGAUGAAUCGGACGGAACGAACAUGAGGAUCACCCAUGUAGAAGGGACACUCA [Candy Rainbow 2] (puzzle: Exclusion 2)”, under setting [2], the “apparent KD of MS2 coat protein” value stood at 0.142 µM.

On to “CACAAGCUUUUUUGAUGCAUUUUAGUUGGUUUCCUUUUUACAUGAGGAUCACCCAUGUUUAUGAAGCUCGAUCUUUU [JR_SV3TOV2_Sub079] (puzzle: Sensor v3, turn-off variant 2)”, for which the “apparent KD of MS2 coat protein” value reads like this: under setting [3], 0.0543 µM; under setting [2], 0.0492 µM; under setting [4], 0.0601 µM.

For “UAACAGUAAGGAUAUCCAGAUCCAGACAUGAGGAUCACCCAUGUCAUAUACCUUUGACACGGAGAAGGUACGAAAA [EX5 A.4] (Eterna round: R97, puzzle: Exclusion 5)”, the “apparent KD of MS2 coat protein” value amounted to 0.0523 µM (input ligand: FMN 200 uM) and 0.0522 µM (input ligand: none).

As for “GGCAAUAUGUAGGAUAUCGUAUUGGAAACAAUACGAGAAGGGCAAACAUGAGGAUCACCCAUGUUCCUUAAGCC [Mat - Exclusion 6 - Eli Mod - D68] (puzzle: Exclusion 6)”, the “apparent KD of MS2 coat protein” value under setting [3] was 0.0186 µM, the “apparent KD of MS2 coat protein” value under setting [2] was 0.0176 µM and the “apparent KD of MS2 coat protein” value under setting [4] was found to be 0.0166 µM.

As for “UUAAUUAAUAAUUAAGAUCAUUACAUGAGGAUCACCCAUGUCGAGGAUAUCAGCUCGAUUAGAGCUGAGAAGGCGACAAAUUAU [ExNG3/13-B1] (Eterna round: R96, puzzle: Exclusion NG 3)”, the “apparent KD of MS2 coat protein” value is, setting by setting: (input ligand: FMN 200 uM) 1.06 µM; under setting [1], 0.644 µM; (input ligand: none) 0.579 µM.

In the case of “CGUAGUCUUCGGACUACGAACAUGAGGAUCACCCAUGUAUAGAGCAGAUCUUCAUGCAAGCUUUUUGCUCGUCUUAU [Sensor v3 - turn-off variant 1 - 48] (puzzle: Sensor v3, turn-off variant 1)”, the “apparent KD of MS2 coat protein” value amounted to 0.082 µM under setting [3], 0.0108 µM under setting [2] and 0.0866 µM under setting [4].

For the sequence “AGGUGUUUCGUAGGAUAUGAGGAUCACCCAUAGAAGGAUAUCGAAAGAGAAGGUCUGAGGAUUACCCAGAAGGACGGGACGUCA [pwkr exNG2 2xF5 2xFMN.10] (Eterna round: R96, puzzle: Exclusion NG 2)”, the “apparent KD of MS2 coat protein” value was 0.57 µM (input ligand: FMN 200 uM), 0.103 µM under setting [1] and 0.145 µM (input ligand: none).

“UUUCCACAUGAGGAUCACCCAUGUCAGGAUAUCUCCACAUCUUCGGAUGUGGCGUGUUAGAGAAGGGACAUGUA [EX1 A.22] (Eterna round: R97, puzzle: Exclusion 1)”: the “apparent KD of MS2 coat protein” value was found to be 0.104 µM (input ligand: FMN 200 uM) and 0.0337 µM (input ligand: none).

Take “GACUGUCUAGGAUAUGCGACGUUUUACAUGAGGAUCACCCAUGUUGUCUGCGUGUGUGUGGCAGAAGGAGACAAAC [Eses] (puzzle: Exclusion 5)”: under setting [2], the “apparent KD of MS2 coat protein” value was 0.0133 µM.

In the case of “AACCUGAGGCAAAGCUUUAGGUGUACAUGAGGAUCACCCAUGUAGGAUAUGGUAGGCAAAGCUUACCAGAAGGACAUUUAGGUU [Mat - Exclusion NG 3 - Mod of JL - D44] (Eterna round: R96, puzzle: Exclusion NG 3)”, the “apparent KD of MS2 coat protein” value reads like this: (input ligand: FMN 200 uM) 0.0816 µM; under setting [1], 0.0365 µM; (input ligand: none) 0.0521 µM.

Regarding “GUGUAGAUAGGAUAUGCAUGAGUCUAGCGAAGCUAGGCUCUACAUGAGGAUCACCCAUGUAGAAGGGUCUACAC [Dot plot directed A v13] (puzzle: Exclusion 2)”, the “apparent KD of MS2 coat protein” value under setting [2] turned out to be 0.0186 µM.

On to “CAGGAUAGAGGAUAUGCAUAGAUACAGAUUCAUGUAAUCCUACAUGAGGAUCACCCAUGUAGAAGGCUAUCCUG [Fiskers Ex 2 - 17] (puzzle: Exclusion 2)”, for which the “apparent KD of MS2 coat protein” value under setting [2] was 0.0147 µM.

For the sequence “CGUCAUCAAGUCAGGAUAUCGUCAAAUCAAUCAGGCGAGAAGGGACAUGAGGAUCACCCAUGUCGACUCAUCAC [Ex4 #3] (Eterna round: R97, puzzle: Brourd's mod of Exclusion 4)”, the “apparent KD of MS2 coat protein” value runs as follows: (input ligand: FMN 200 uM) 0.0249 µM; (input ligand: none) 0.0213 µM.

“GAUCCUUCUGUUAGGAUAUGCUUUGGGCUUCCGCAGCAGAAGGAACAUGAGGAUCACCCAUGUCAAAUACCAUC [salish99_bmex4_r4_503] (Eterna round: R97, puzzle: Brourd's mod of Exclusion 4)”: the “apparent KD of MS2 coat protein” value by setting is: (input ligand: FMN 200 uM) 0.0231 µM; (input ligand: none) 0.0231 µM.

“CGUAGUCUUCGGACUACGAACAUGAGGAUCACCCAUGUAAUGAGCAGAUCCUCAUGCAAGCUUUUUGCUCGUCUUAU [Sensor v3 - turn-off variant 1 - 46] (puzzle: Sensor v3, turn-off variant 1)”: the “apparent KD of MS2 coat protein” value runs as follows: under setting [3], 0.0138 µM; under setting [2], 0.0115 µM; under setting [4], 0.0207 µM.

As for “UCAUGUUAGCAGGAUAUGCUAUUUAUCUUUUAUGCAGAAGGGCUUACAUGAGGAUCACCCAUGUAUUAAGUCUU [JR_E6_Sub075] (puzzle: Exclusion 6)”, the “apparent KD of MS2 coat protein” value under setting [2] was 0.018 µM.

For “AAUGAUUGAUGAGGAUAUUGUGGUGAAACACGACGAGAAGGCAUAUGUCACAUGAGGAUCACCCAUGUGAGCUUUGUGGAUAUA [Ex NG1 #67] (Eterna round: R96, puzzle: Exclusion NG 1)”, the “apparent KD of MS2 coat protein” value under setting [1] turned out to be 0.0183 µM.

As for “UAUAUAUAGUAAGGAUAUGUAUUUGUUUUAUAAACAGAAGGUACUGACAUGAGGAUCACCCAUGUUUUAGUGUGGGCAUGUAGA [JMF's solution 11] (Eterna round: R96, puzzle: Exclusion NG 1)”, the “apparent KD of MS2 coat protein” value under setting [1] is 0.0328 µM.

On to “CUCCGGCGUGUAGGAUAUGGAUCCGAUUAGGAUCCAGAAGGACAUGAGGAUCACCCAUGUACAUGUAAACAGUCAUCACCGGAC [salish99_ExNG1_r04_204] (Eterna round: R96, puzzle: Exclusion NG 1)”, for which the “apparent KD of MS2 coat protein” value came out at 0.155 µM (input ligand: FMN 200 uM), 0.0104 µM under setting [1] and 0.0187 µM (input ligand: none).

Consider “UGAUCACAUGAGGAUCACCCAUGUCAGGAUAUCUACAUUGAAGCUUCGGCUUCAAUGUAGAGAAGGGAUAUAAU [E1/5-B1] (Eterna round: R97, puzzle: Exclusion 1)”, for which the “apparent KD of MS2 coat protein” value runs as follows: (input ligand: FMN 200 uM) 0.203 µM; (input ligand: none) 0.0828 µM.

On to “GGAGAGAGGCAGGAUAUGGGAGGGAGGACCGGACCAGAAGGGUUGACAUGAGGAUCACCCAUGUAGAGAUCCUC [AK-MS2ROC-r4-exclusion6-6.8] (Eterna round: R97, puzzle: Exclusion 6)”, for which the “apparent KD of MS2 coat protein” value reads like this: (input ligand: FMN 200 uM) 0.563 µM; (input ligand: none) 1.14 µM.

With “UGAUAGAGCCUAGGAUAUUCGGAUCUACUACAAGGAGAAGGAGGUAGUCGGUGACGAACAUGAGGAUCACCCAUGUCGUCCUUC [Eternabot solution 37] (Eterna round: R96, puzzle: Exclusion NG 1)”, the “apparent KD of MS2 coat protein” value under setting [1] is 0.0617 µM.

“CGGCGACAUGAGGAUCACCCAUGUGAGGAUAUGACGGGAAAAGCGUGAGCAGUUUGUGUCAGAAGGCGCGUAGG [salish99_ex1_r4_081] (Eterna round: R97, puzzle: Exclusion 1)”: the “apparent KD of MS2 coat protein” value by setting is: (input ligand: FMN 200 uM) 0.0202 µM; (input ligand: none) 0.0287 µM.

As for “GGGAAGGGAGGAUAUGAGGGAGAGAACAUGAGGAUCACCCAUGUGAGACCUCAGGAUCGAUCAGAAGGCCCGACCC [AK-MS2ROC-r4-exclusion5-13.1] (Eterna round: R97, puzzle: Exclusion 5)”, the “apparent KD of MS2 coat protein” value by setting is: (input ligand: FMN 200 uM) 0.824 µM; (input ligand: none) 0.0922 µM.

(Values after the supplement of paper PMC9170038.)
